The text below walks through data of PMC7714070, “The role of the cytoskeletal proteins MreB and FtsZ in multicellular cyanobacteria” (FEBS Open Bio, 2020).

The data set concerns the molecule itself. As to the kind of experiment: in vitro polymerisation seen by epifluorescence microscopy; Ni-NTA-purified FtsZ-His labelled with NHS-Fluorescein, in FtsZ polymerization buffer (50 mM MES, 50 mM KCl, 10 mM MgCl2, 2 mM GTP, pH 6.5), 40 min at 30 °C.

B1: Polyhistidine tagged FtsZ from Fischerella muscicola PCC 7414 (natural protein, UniProt A0A2N6JXP9 1-430, looked up)
chain: MTLDNNQGLTYKNSQSPGQSTFSLAVNSTNPFNHSGLSFGQNNDSKKIEREETRIGDIVPGRVANIKVIGVGGGGSNAVNRMIASDVSGVEFWSINTDAQALTLAAAPSRLQIGQKLTRGLGAGGNPAIGTKAAEESRDEIATALDGADLVFITAGMGGGTGTGAAPIVAEVAKEMGALTVGVVTRPFIFEGRRRISQAEQGIEGLKSRVDTLIIIPNNKLLEVIPEQTPMQEAFRYADDVLRQGVQGISDIITIPGLINVDFADVRAVMADAGSALMGIGIGSGKSRAREAAIAAISSPLLECSIEGARGVVFNITGGSDLTLHEVNAAAETIYEVVDPNANIIFGAVIDDRLQGEVRLTVIATGFTGEAPAAQQSNVTQGRVVQPPPQRRPMQQPPAPNPPTQTPEPKEKGSVLDIPDFLRKRTPPRN
modifications: labelled with NHS-Fluorescein
notes: FtsZ of Fischerella muscicola PCC 7414; also called FtsZFm-His; FtsZ-His; source: E. coli BL21 (DE3), purified (Ni-NTA)
For the protein B1, the binding result is on record as “binds”.

B2: Polyhistidine tagged FtsZ from Anabaena sp. PCC 7120 (natural protein, UniProt P45482 1-428, looked up)
chain: MTLDNNQELTYRNSQSLGQPGFSLAVNSSNPFNHSGLNFGQNNDSKKISVENNRIGEIVPGRVANIKVIGVGGGGGNAVNRMIESDVSGVEFWSINTDAQALTLAGAPSRLQIGQKLTRGLGAGGNPAIGQKAAEESRDEIATALEGADLVFITAGMGGGTGTGAAPIVAEVAKEMGALTVGVVTRPFVFEGRRRTSQAEQGIEGLKSRVDTLIIIPNNKLLEVIPEQTPVQEAFRYADDVLRQGVQGISDIITIPGLVNVDFADVRAVMADAGSALMGIGVSSGKSRAREAAIAAISSPLLECSIEGARGVVFNITGGSDLTLHEVNAAAETIYEVVDPNANIIFGAVIDDRLQGEVRITVIATGFTGEIQAAPQQNAANARVVSAPPKRTPTQTPLTNSPAPTPEPKEKSGLDIPDFLQRRRPPKN
modifications: labelled with NHS-Fluorescein
notes: FtsZ of Anabaena sp; PCC 7120; also called FtsZAna-His; FtsZ-His; source: E. coli BL21 (DE3), purified (Ni-NTA)
Turning to B2, the binding result is reported as “binds”.
